Molecular target: microtubules grown from porcine brain tubulin (porcine) (UniProt P02550)
Assay: TIRF microscopy of fluorescent proteins on dynamic microtubules in vitro

Row | fold intensity along MTs over NEDD1^CDK1/PLK1 | MT binding at 10 nM, percent of γ-TuRC^StN/CDK1/PLK1 | MT binding at 50 nM, percent of γ-TuRC^StN/CDK1/PLK1 | Substance
1 | 20 fold |  |  | augmin^CDK1/PLK1-GFP, Q96CS2-1;Q9NVX0-1;Q68CZ6-1;Q9H6D7-1;O94927-1;Q7Z4H7-1;Q99871-1;Q9BT25-1
2 |  | 21% | 13% | γ-TuRC^ΔWD/StN/CDK1/PLK1-GFP (γ-TuRC purified by Strep-NEDD1 ΔWD, GCP3-GFP) (from UniProt P23258;Q9BSJ2-1;Q96CW5-1;Q9UGJ1-2;Q96RT8-1;Q96RT7-1;Q08AG7;Q6P582;Q6NZ67;Q9Y5B8-1) (complex)

Reference: PMC9129923
